Measured values published in US20150337019A1 (MANUKAMED HOLDINGS LIMITED PARTNERSHIP, published 2015).

B1: MGO-modified Ac-KISI-OH (peptide)
peptide: Ac-KISI-OH
modifications: also: MGO-modified, site not given here
B2: MGO-modified Ac-KISIHL-OH (peptide)
peptide: Ac-KISIHL-OH
modifications: also: MGO-modified, site not given here
B3: Ac-PFKI-OH (peptide)
peptide: Ac-PFKI-OH
B4: Ac-KISIHL-OH (peptide)
peptide: Ac-KISIHL-OH
B5: Ac-PFKISIHL-OH (peptide)
peptide: Ac-PFKISIHL-OH
B6: MGO-modified Ac-PFKISIHL-OH (peptide)
peptide: Ac-PFKISIHL-OH
modifications: also: MGO-modified, site not given here
B7: MGO-modified Ac-PFKI-OH (peptide)
peptide: Ac-PFKI-OH
modifications: also: MGO-modified, site not given here
B8: Ac-KISI-OH (peptide)
peptide: Ac-KISI-OH
B9: Ac-SKLH-OH (peptide)
peptide: Ac-SKLH-OH
B10: Ac-HSSKLH-OH (peptide)
peptide: Ac-HSSKLH-OH
B11: Ac-SSKS-OH (peptide)
peptide: Ac-SSKS-OH
B12: Ac-HSSK-OH (peptide)
peptide: Ac-HSSK-OH
B13: MGO-modified Ac-SKLH-OH (peptide)
peptide: Ac-SKLH-OH
modifications: also: MGO-modified, site not given here
B14: MGO-modified Ac-HSSKLH-OH (peptide)
peptide: Ac-HSSKLH-OH
modifications: also: MGO-modified, site not given here
B15: MGO-modified Ac-SSKS-OH (peptide)
peptide: Ac-SSKS-OH
modifications: also: MGO-modified, site not given here
B16: MGO-modified Ac-LLK-NH2 (peptide)
peptide: Ac-Leu-Leu-Lys-NH2
modifications: also: MGO-modified, site not given here
B17: MGO-modified Ac-QNKH-OH (peptide)
peptide: Ac-QNKH-OH
modifications: also: MGO-modified, site not given here
B18: Ac-KHNN-OH (peptide)
peptide: Ac-KHNN-OH
B19: Ac-KH-OH (peptide)
peptide: Ac-Lys-His-OH
B20: MGO-modified Ac-QNKHNN-OH (peptide)
peptide: Ac-QNKHNN-OH
modifications: also: MGO-modified, site not given here
B21: Ac-QNKHNN-OH (peptide)
peptide: Ac-QNKHNN-OH
B22: Ac-KN-OH (peptide)
peptide: Ac-Lys-Asn-OH
B23: MGO-modified Ac-NQKN-OH (peptide)
peptide: Ac-NQKN-OH
modifications: also: MGO-modified, site not given here
B24: MGO-modified Ac-NQKNNNQN-OH (peptide)
peptide: Ac-NQKNNNQN-OH
modifications: also: MGO-modified, site not given here
B25: Ac-NQKNNNQNDN-OH (peptide)
peptide: Ac-NQKNNNQNDN-OH
B26: Ac-NQKNNN-OH (peptide)
peptide: Ac-NQKNNN-OH
B27: MGO-modified Ac-NQKNNN-OH (peptide)
peptide: Ac-NQKNNN-OH
modifications: also: MGO-modified, site not given here
B28: Ac-NQKN-OH (peptide)
peptide: Ac-NQKN-OH
B29: MGO-modified Ac-NQKNNNQNDN-OH (peptide)
peptide: Ac-NQKNNNQNDN-OH
modifications: also: MGO-modified, site not given here
B30: Ac-NQKNNNQN-OH (peptide)
peptide: Ac-NQKNNNQN-OH
B31: MGO-modified Ac-SSKSNN-OH (peptide)
peptide: Ac-SSKSNN-OH
modifications: also: MGO-modified, site not given here
B32: Ac-SSKSNNRH-OH (peptide)
peptide: Ac-SSKSNNRH-OH
B33: Ac-SSKSNNRHNNND-OH (peptide)
peptide: Ac-SSKSNNRHNNND-OH
B34: Ac-SSKSNNRHNN-OH (peptide)
peptide: Ac-SSKSNNRHNN-OH
B35: MGO-modified Ac-SSKSNNRHNNND-OH (peptide)
peptide: Ac-SSKSNNRHNNND-OH
modifications: also: MGO-modified, site not given here
B36: MGO-modified Ac-SSKSNNRH-OH (peptide)
peptide: Ac-SSKSNNRH-OH
modifications: also: MGO-modified, site not given here
B37: Ac-SSKSNN-OH (peptide)
peptide: Ac-SSKSNN-OH
B38: MGO-modified Ac-SSKSNNRHNN-OH (peptide)
peptide: Ac-SSKSNNRHNN-OH
modifications: also: MGO-modified, site not given here

biological target: T1, Cathepsin B from bovine spleen (bovine, UniProt P07688 80-332); test: cell-based or functional assay

Cathepsin B inhibition test, 2 mM peptide | Binder
92.8 | B1
73.2 | B2
152 | B3
149 | B4
144 | B5
28.1 | B6
91.5 | B7
133 | B8

biological target: T1, Cathepsin B from bovine spleen; test: cell-based or functional assay; remark: another data set of the same source

Cathepsin B inhibition test, 2 mM peptide | Binder
146 | B9
122 | B10
119 | B11
165 | B12
67.6 | B13
102 | B14
107 | B15

biological target: T1, Cathepsin B from bovine spleen; test: cell-based or functional assay; remark: another data set of the same source

Cathepsin B inhibition test, 2 mM peptide | Binder
137 | B16

biological target: T1, Cathepsin B from bovine spleen; test: cell-based or functional assay; remark: another data set of the same source

Cathepsin B inhibition test, 2 mM peptide | Binder
97.8 | B17
129 | B18
230 | B19
51.3 | B20
168 | B21

biological target: T1, Cathepsin B from bovine spleen; test: cell-based or functional assay; remark: another data set of the same source

Cathepsin B inhibition test, 2 mM peptide | Binder
150 | B22
102 | B23
171 | B24
254 | B25
147 | B26
87.5 | B27
282 | B28
123 | B29
290 | B30

biological target: T1, Cathepsin B from bovine spleen; test: cell-based or functional assay; remark: another data set of the same source

Cathepsin B inhibition test, 2 mM peptide | Binder
107 | B31
125 | B32
164 | B33
131 | B34
110 | B35
102 | B36
129 | B37
104 | B38
